Drawing on US20230212268A1 (UNM RAINFOREST INNOVATIONS, published 2023), this text covers EC50 and Bmax signal for one molecule.

In assay [1] the target is T1, recombinant EBOV glycoprotein (EBOV (Zaire ebolavirus), UniProt Q05320 33-650).
T1 sequence: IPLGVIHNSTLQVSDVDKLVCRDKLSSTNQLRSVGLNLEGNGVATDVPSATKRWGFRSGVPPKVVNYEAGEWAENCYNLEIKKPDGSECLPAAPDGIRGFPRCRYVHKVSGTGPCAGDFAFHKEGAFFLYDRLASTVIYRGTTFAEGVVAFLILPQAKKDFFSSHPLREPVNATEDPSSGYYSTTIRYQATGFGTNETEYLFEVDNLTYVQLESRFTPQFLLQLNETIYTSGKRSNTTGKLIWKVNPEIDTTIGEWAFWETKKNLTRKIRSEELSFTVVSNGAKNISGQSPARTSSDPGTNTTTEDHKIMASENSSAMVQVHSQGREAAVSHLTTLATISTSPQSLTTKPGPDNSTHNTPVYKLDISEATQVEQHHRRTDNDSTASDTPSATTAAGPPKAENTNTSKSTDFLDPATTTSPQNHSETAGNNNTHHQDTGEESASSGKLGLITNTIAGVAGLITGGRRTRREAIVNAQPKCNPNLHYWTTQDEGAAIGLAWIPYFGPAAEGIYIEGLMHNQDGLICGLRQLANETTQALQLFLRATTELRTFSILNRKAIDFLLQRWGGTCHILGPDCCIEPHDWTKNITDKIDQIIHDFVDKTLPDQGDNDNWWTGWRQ

For assay [2], the target named is recombinant BDBV glycoprotein (BDBV (Bundibugyo ebolavirus)). As to the kind of experiment: ELISA dose response, GP coated. In general terms: ELISA stands for enzyme-linked immunosorbent assay.
Assay [3] deals with T2, recombinant RESTV glycoprotein (RESTV (Reston ebolavirus), UniProt Q66799 34-651).
T2 sequence: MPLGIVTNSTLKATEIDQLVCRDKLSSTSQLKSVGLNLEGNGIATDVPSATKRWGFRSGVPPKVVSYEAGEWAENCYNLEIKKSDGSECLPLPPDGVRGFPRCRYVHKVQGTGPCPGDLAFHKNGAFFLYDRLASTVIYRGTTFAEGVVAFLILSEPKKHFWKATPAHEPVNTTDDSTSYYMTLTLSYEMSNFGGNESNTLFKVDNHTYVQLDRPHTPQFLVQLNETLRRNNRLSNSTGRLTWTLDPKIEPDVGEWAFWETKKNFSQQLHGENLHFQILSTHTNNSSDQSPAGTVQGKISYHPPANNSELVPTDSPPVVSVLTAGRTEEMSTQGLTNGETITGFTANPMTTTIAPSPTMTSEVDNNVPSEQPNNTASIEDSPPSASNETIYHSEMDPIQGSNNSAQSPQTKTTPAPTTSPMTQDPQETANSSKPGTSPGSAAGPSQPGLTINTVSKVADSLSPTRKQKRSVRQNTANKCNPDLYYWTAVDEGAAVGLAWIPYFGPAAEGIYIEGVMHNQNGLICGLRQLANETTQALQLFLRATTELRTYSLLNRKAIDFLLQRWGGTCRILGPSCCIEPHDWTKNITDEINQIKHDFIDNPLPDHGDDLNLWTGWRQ
As to the kind of experiment: maximal binding from ELISA dose-response fit.

For assay [4], the target named is T3, recombinant TAFV glycoprotein (TAFV (Tai Forest virus), UniProt Q66810 33-650).
T3 sequence: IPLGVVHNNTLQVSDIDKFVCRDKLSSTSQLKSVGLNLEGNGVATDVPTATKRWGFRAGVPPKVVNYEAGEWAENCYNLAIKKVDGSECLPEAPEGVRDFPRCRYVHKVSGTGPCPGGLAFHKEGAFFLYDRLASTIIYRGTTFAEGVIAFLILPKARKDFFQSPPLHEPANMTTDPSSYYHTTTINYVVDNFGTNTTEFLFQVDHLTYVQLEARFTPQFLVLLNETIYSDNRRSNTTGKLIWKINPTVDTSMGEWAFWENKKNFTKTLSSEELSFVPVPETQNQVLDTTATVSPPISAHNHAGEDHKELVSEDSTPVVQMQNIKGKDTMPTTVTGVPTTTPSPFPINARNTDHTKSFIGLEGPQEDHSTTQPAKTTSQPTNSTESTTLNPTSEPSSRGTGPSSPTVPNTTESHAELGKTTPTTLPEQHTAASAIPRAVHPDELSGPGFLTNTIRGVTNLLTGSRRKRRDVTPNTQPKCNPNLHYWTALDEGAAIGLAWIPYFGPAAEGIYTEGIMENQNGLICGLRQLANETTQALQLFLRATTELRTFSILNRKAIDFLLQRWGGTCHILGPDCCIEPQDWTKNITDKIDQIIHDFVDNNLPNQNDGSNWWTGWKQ
As to the kind of experiment: maximal binding from ELISA dose-response fit.

In assay [5] the target is T4, recombinant MARV glycoprotein (MARV (marburgvirus, Ravn), UniProt Q1PDC7 19-648).
T4 sequence: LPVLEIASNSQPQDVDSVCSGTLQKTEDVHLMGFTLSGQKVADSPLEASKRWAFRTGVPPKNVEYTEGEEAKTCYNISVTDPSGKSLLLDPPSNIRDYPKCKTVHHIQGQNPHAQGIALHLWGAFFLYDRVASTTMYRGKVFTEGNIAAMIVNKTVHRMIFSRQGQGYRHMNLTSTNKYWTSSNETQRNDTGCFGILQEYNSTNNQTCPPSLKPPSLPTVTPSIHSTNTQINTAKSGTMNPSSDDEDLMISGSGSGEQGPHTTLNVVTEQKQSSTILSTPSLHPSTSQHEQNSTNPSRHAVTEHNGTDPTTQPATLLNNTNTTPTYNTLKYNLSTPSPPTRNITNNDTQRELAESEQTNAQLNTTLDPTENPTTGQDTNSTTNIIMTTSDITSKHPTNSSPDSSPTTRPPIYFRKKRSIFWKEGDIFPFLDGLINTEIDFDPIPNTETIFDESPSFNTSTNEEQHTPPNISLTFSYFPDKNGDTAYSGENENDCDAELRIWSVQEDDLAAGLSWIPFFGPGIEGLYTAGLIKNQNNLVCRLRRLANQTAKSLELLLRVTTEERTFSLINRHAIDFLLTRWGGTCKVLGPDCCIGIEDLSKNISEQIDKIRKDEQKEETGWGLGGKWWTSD
As to the kind of experiment: maximal binding from ELISA dose-response fit.

Bounds are passed on as bounds.

B1: EbovGPscFv4-2 (scFv)
scFv: MAWSHPQFEKTGSGGAELVKSGASVKLSCTASGFNIKDDYMHWVKQRPEQGLEWIGWIDPENGDTEYASKFQGKATITADTSSNTAYLQLSSLTSEDTAVYYCTTYYYGSAWFAYWGQGTLVTVSAGGGGSGGGGSGGGGSGGGGSASLSVSVGETVTITCRASGNIHNYLAWYQQKQGKSPQLLVYNAKTLADGVPSRFSGSGSGTQYSLKINNLQPEDFGSYYCQHFWSTPYTFGGGTKLEIKRADAAPTVSIFPPSSEQLTSGGASVVCFLNNFTHCQELQQDECS
Broadly, the EC50 is the concentration that produces a half-maximal response. As for B1, the EC50 in assay [1] is 4 µg/mL; in assay [2] it was under 9 µg/mL. Further, the Bmax signal in assay [3] was found to be 210000 relative absorbance units; in assay [4] it was 280000 relative absorbance units; in assay [5], 380000 relative absorbance units.
